Assay results published in PMC7005700.

Columns and labels:
USF-1 = USF-1 (UniProt P22415); experiment: co-immunoprecipitation, immunoblot; details: reference: wild type; sites T505
[1] = target: USF-1 overexpressed in 293FT cells (UniProt P22415)
[2] = target: USF-1 overexpressed in 293FT cells (UniProt P22415); remark: listed apart in the source

Sequence of USF-1 overexpressed in 293FT cells (P22415 whole entry): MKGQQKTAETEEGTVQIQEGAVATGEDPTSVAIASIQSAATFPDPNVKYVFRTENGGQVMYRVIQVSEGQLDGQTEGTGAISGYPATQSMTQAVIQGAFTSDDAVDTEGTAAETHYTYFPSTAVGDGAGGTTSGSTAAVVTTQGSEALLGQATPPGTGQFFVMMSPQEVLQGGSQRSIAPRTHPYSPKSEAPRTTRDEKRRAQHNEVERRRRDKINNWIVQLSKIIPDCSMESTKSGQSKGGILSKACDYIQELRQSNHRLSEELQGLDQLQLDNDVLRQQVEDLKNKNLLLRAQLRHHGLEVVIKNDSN

With JMJD1C (from UniProt Q15652) T505A the “binding against the reference” value (USF-1) was “lost”.
In the case of JMJD1C T505D mutant, Q15652 1-2540, the ChIP-qPCR enrichment at the FAS promoter (FAS promoter luc construct) upon insulin treatment [1] is reported as 17 fold.
Work on WT JMJD1C, Q15652 1-2540 yielded an FAS promoter (-444-FAS promoter-luciferase) activity in 293FT cells co-transfected with JMJD1C along with USF-1 [2] of 27 fold and a ChIP-qPCR enrichment at the FAS promoter (FAS promoter luc construct) upon insulin treatment [1] of 12 fold.
